Laboratory results published in US20240043512A1 (IMCARE BIOTECH, published 2024).

T1: Peptide A (entire sequence of AS-SPIK without disulfide bonds) (human, cysteine side-groups inactivated, no disulfide bonds)
T1 construct: Synthesized by BioMatik
T1 peptide: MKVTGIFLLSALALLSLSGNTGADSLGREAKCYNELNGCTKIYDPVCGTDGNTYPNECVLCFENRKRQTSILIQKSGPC

B1: SPIK8 (peptide)
peptide: LSLSGNTGA
B2: SPIK1 (peptide)
peptide: SGNTGADSLGREA
B3: SPIK2 (peptide)
peptide: SLSGNTGADSLGR
B4: SPIK3 (peptide)
peptide: LLSLSGNTGADSL
B5: IM-E2 (antibody, V domains shown)
VH: QSVKESEGGLFKPTDTLTLTCTVSGFSLSAYAISWVRQAPGNGLEWIGAINSGGSAYYANWAKSRSTITRNTNLNTVTLKMTSLTAADTATYFCAREDIYDYGGAFDPWGPGTLVTVST
VL: AYDMTQTPASVEVTVGGTVTIKCQASQGISSYLSWYQQKPGQPPKLLIYAATTLVSGVSSRFKGSGSGTQFTLTISGVECADAATYYCQQDYTTSNVDNTFGGGTEVVVKG
notes: Rabbit monoclonal, Class II
B6: IM-C6 (antibody, V domains shown)
VH: QSVKESEGGLFKPTDALTLTCTVSGFSLSSYAISWVRQAPGSGLEWIGAINTYGGTYYASWAKSRSTITRNTNENTVTLKMTSLTAADTATYFCARDFDSDAYTSASGGMDWGPGTLVTVSS
VL: AYDMTQTPASVEVAVGGTVTIKCQASQSINNYLSWYQQIPGQPPKLLIYRASTLASGVSSRFKGSGSGTQFTLTISGVQCADAATYYCQQGYTSNVDNVFGGGTEVVVKG
notes: Rabbit monoclonal, Class II

The binders below were run against IM-CA22 (assay: competition ELISA: 0.5 µg/mL peptide added to prevent the binding of AS-SPIK with IM-CA22; inhibition rate from OD value with vs without peptide).
Sequence of IM-CA22 (VH, as listed by the source, chain 1 of 2): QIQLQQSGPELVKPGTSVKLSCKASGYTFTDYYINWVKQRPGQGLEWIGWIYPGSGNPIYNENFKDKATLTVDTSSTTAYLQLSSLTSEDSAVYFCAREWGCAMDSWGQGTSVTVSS
Sequence of IM-CA22 (VL, as listed by the source, chain 2 of 2): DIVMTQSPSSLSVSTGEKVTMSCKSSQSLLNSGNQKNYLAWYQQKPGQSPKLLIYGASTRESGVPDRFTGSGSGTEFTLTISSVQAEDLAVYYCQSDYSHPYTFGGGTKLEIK
With B1 the Inhibition % was 11%. B2 was tested, and the Inhibition % was 9%. For B3, the Inhibition % was 10%. B4 was tested, and the Inhibition % was 11%.

Biological target: T1, Peptide A (entire sequence of AS-SPIK …)
Test: ELISA, plate coated with peptide, HRP-labelled antibody
Excerpt: In order to further support the observation that epitopes specific to AS-SPIK and not NS-SPIK are conformation-dependent, additional tests to evaluate antibody binding to various synthesized peptides was completed. Four peptides, each containing sequences from different regions of AS-SPIK were synthesized by BioMatik (Wilmington DE). Peptide A contains the entire sequence of AS-SPIK, but without the formation of any disulfide bonds via the inactivation of cysteine side-groups. Peptide B contains the sequence of AS-SPIK fragment from M₁-G₅₀, Peptide C contains the sequence of AS-SPIK fragment from D₂₃-G₅₀ and Peptide D contains the sequence of AS-SPIK fragment from N₅₁-C₇₉. The binding activity of our monoclonal antibodies to AS-SPIK and the other peptides was tested by ELISA and results for IM-CA22 are shown in FIG. 6. Similar results were obtained from all other monoclonal anti-AS-SPIK antibodies we have developed, including IM-CA18, IM-CA46, IM-CA77, IM-A1, IM-A6, IM-B10, IM-C6, IM-D3, IM-D5, IM-E2, IM-F5, IM-G6 and IM-G7. Briefly, a 96-well plate was coated with Native AS-SPIK and different peptides, the plate then reacted with anti-AS-SPIK antibody (IM-CA22 herein) labeled with HRP. The OD450 nm was determined after incubating the plate with the substrate, TMB.
B5: no binding. B6: no binding.
